± gives the uncertainty stated by the source.
B1: Transcriptional regulator ERG, residues 117 to 197; numbered along this chain, P11308 (parent)
chain: NMTTNERRVIVPADPTLWSTDHVRQWLEWAVKEYGLPDVNILLFQNIDGKELCKMTKDDFQRLTPSYNADILLSHLHYLRE

Variants of: B1
Assay: abundance fitness (aPCA) (normalised: wild type 0, dead -1); higher = more abundant; growth selection in yeast, the domain comes from the species named
Conditions: Homo sapiens

| Variant | abundance fitness |
| --- | --- |
| L52N | -0.97 ± 0.17 |
| P12A | -0.176 ± 0.047 |
| T3Y | -0.141 ± 0.078 |
| L17D | 0.091 ± 0.064 |
| I41V | -0.021 ± 0.039 |
| L27Q | -0.658 ± 0.19 |
| P65K | -0.107 ± 0.09 |
| L43C | 0.08 ± 0.056 |
| N5E | 0.064 ± 0.047 |
| K57D | -0.093 ± 0.095 |
| K57C | -0.264 ± 0.12 |
| R7I | -0.208 ± 0.074 |
| L52V | -0.308 ± 0.069 |
| K57A | 0.029 ± 0.055 |
| R7Y | -0.127 ± 0.076 |
| Y78T | 0.173 ± 0.087 |
| H75D | 0.119 ± 0.095 |
| G49A | -0.837 ± 0.083 |
| S74I | -0.342 ± 0.17 |
| T4F | 0.079 ± 0.062 |
| L36F | -0.038 ± 0.1 |
| S19L | -0.565 ± 0.069 |
| E81F | -0.339 ± 0.19 |
| R80H | 0.068 ± 0.47 |

| Variant | abundance fitness |
| --- | --- |
| D48R | -0.183 ± 0.036 |
| L43N | -0.033 ± 0.096 |
| P65H | 0.135 ± 0.22 |
| L72H | -0.909 ± 0.45 |
| L72W | -0.653 ± 0.087 |
| G49D | -0.874 ± 0.14 |
| I41H | -0.075 ± 0.083 |
| M55R | -0.65 ± 0.098 |
| L73G | -0.183 ± 0.047 |
| I41K | 0.012 ± 0.05 |
| Y67L | -0.03 ± 0.072 |
| T56H | -0.123 ± 0.23 |
| G35W | -0.273 ± 0.054 |
| E51V | -0.051 ± 0.037 |
| T3R | -0.05 ± 0.036 |
| H75L | -0.316 ± 0.11 |
| F60A | -0.401 ± 0.08 |
| T20A | 0.021 ± 0.039 |
| Y34S | -0.278 ± 0.055 |
| V11G | 0.05 ± 0.031 |
| W26T | -1.34 ± 0.32 |
| D59G | -0.204 ± 0.053 |
| T16Y | 0.017 ± 0.081 |
| W18S | -0.864 ± 0.13 |

| Variant | abundance fitness |
| --- | --- |
| D21W | -0.141 ± 0.048 |
| I41N | -0.136 ± 0.081 |
| W18Q | -0.578 ± 0.19 |
| H77S | -0.026 ± 0.073 |
| V11W | 0.2 ± 0.04 |
| T64G | -0.141 ± 0.039 |
| D14K | -0.872 ± 0.19 |
| L79C | 0.114 ± 0.091 |
| D58S | -0.1 ± 0.084 |
| N68V | 0.008 ± 0.046 |
| K32G | -0.103 ± 0.034 |
| L42V | -0.027 ± 0.035 |
| N5A | -0.06 ± 0.043 |
| Y67C | 0.127 ± 0.098 |
| G49W | -1.04 ± 0.13 |
| V23D | -0.781 ± 0.18 |
| I71W | -0.282 ± 0.064 |
| T56L | -0.265 ± 0.07 |
| L52W | -0.809 ± 0.18 |
| K50N | 0.032 ± 0.063 |
| M2W | -0.17 ± 0.053 |
| C53N | -0.228 ± 0.072 |
| D59F | -0.538 ± 0.31 |
| G35I | -0.021 ± 0.077 |

| Variant | abundance fitness |
| --- | --- |
| W18E | -0.885 ± 0.12 |
| N46P | -0.244 ± 0.084 |
| V23S | -0.761 ± 0.13 |
| T64Q | -0.135 ± 0.069 |
| Y67V | 0.019 ± 0.062 |
| P37G | -0.026 ± 0.048 |
| G35Q | 0.05 ± 0.05 |
| K57E | -0.023 ± 0.061 |
| H22Y | -0.672 ± 0.13 |
| F44V | -0.523 ± 0.053 |
| T16C | 0.028 ± 0.066 |
| Y78K | 0.103 ± 0.085 |
| C53L | 0 ± 0.038 |
| E28A | -0.022 ± 0.045 |
| Q45T | -0.132 ± 0.062 |
| Q25V | 0.01 ± 0.037 |
| L27D | -0.648 ± 0.13 |
| V9C | 0.046 ± 0.063 |
| W29A | 0.101 ± 0.042 |
| N68M | -0.155 ± 0.08 |
| L43V | -0.083 ± 0.035 |
| K32D | -0.028 ± 0.066 |
| L73M | 0.015 ± 0.074 |
| P37Q | -0.044 ± 0.055 |

| Variant | abundance fitness |
| --- | --- |
| T3I | -0.014 ± 0.08 |
| L42D | -0.068 ± 0.063 |
| D21T | -0.065 ± 0.053 |
| R80K | -0.004 ± 0.1 |
| E33P | -0.929 ± 0.2 |
| W26V | -0.778 ± 0.081 |
| K54D | 0.021 ± 0.099 |
| I71V | 0.059 ± 0.041 |
| W26L | -0.658 ± 0.073 |
| L72A | -0.821 ± 0.11 |
| T4L | -0.025 ± 0.044 |
| I71G | -0.174 ± 0.037 |
| D59K | -0.199 ± 0.12 |
| Y78C | 0.029 ± 0.13 |
| W29R | -0.006 ± 0.032 |
| C53R | -0.391 ± 0.072 |
| L27P | -0.593 ± 0.14 |
| D14I | -0.726 ± 0.2 |
| S19Y | -0.798 ± 0.22 |
| H77M | -0.24 ± 0.1 |
| E81Y | -0.058 ± 0.21 |
| N46L | -0.251 ± 0.056 |
| V31K | 0.06 ± 0.059 |
| E33H | -0.108 ± 0.11 |

| Variant | abundance fitness |
| --- | --- |
| N46W | -0.201 ± 0.057 |
| L73D | -0.156 ± 0.12 |
| R24Y | -0.209 ± 0.097 |
| L63R | -0.153 ± 0.041 |
| A13L | -0.046 ± 0.045 |
| C53G | -0.262 ± 0.058 |
| V23L | -0.874 ± 0.14 |
| P15Y | -0.266 ± 0.065 |
| L76K | -0.519 ± 0.2 |
| E28S | -0.099 ± 0.047 |
| D38V | -0.755 ± 0.078 |
| L17M | 0.046 ± 0.059 |
| E28F | -0.24 ± 0.13 |
| E81I | -0.152 ± 0.24 |
| M2V | -0.417 ± 0.054 |
| K54Y | -0.117 ± 0.099 |
| T64K | -0.576 ± 0.12 |
| L63S | -0.46 ± 0.086 |
| H75V | -0.62 ± 0.13 |
| M2T | -0.033 ± 0.051 |
| D14P | -0.898 ± 0.17 |
| P37V | -0.024 ± 0.044 |
| R62L | -0.152 ± 0.069 |
| Q61F | -0.042 ± 0.15 |

| Variant | abundance fitness |
| --- | --- |
| D59W | -0.743 ± 0.18 |
| K57R | -0.016 ± 0.042 |
| T20W | -0.413 ± 0.061 |
| L52I | -0.126 ± 0.054 |
| D21V | -0.077 ± 0.038 |
| Q61E | 0.056 ± 0.061 |
| D59R | -0.154 ± 0.067 |
| N40Y | -0.284 ± 0.086 |
| A69G | -0.124 ± 0.054 |
| T56V | -0.066 ± 0.056 |
| F44P | -0.435 ± 0.1 |
| Q61I | 0.193 ± 0.33 |
| R80V | -0.046 ± 0.055 |
| P65I | -0.449 ± 0.27 |
| L76R | -0.944 ± 0.15 |
| E51H | -0.113 ± 0.077 |
| T64D | 0.041 ± 0.077 |
| L36Q | -0.67 ± 0.12 |
| H22L | -0.532 ± 0.065 |
| R24K | 0 ± 0.056 |
| P12V | -0.631 ± 0.067 |
| L73I | -0.034 ± 0.16 |
| C53Y | -0.509 ± 0.12 |
